# Test results reported in US20210139548A1 (published 2021).
# *1 amine or outer side, *2 acyl side, *3 side chain or, on linkers, in order; H or OH if unused. Side-chain parts run from the residue outwards. The star is where a group is joined. C18 diacid = O=C(O)CCCCCCCCCCCCCCCCC(=O)*; γGlu = O=C(O)[C@H](CCC(=O)[*:2])N[*:1]; Isovaleryl = CC(C)CC(=O)*; AEEA = NCCOCCOCC(=O)O
# T1: human neuropeptide Y2 receptor (human, UniProt P49146 1-381)
# T1 construct: whole, on cells; also called hNPY2 receptor; hNPY2-R
# T1 sequence (looked up): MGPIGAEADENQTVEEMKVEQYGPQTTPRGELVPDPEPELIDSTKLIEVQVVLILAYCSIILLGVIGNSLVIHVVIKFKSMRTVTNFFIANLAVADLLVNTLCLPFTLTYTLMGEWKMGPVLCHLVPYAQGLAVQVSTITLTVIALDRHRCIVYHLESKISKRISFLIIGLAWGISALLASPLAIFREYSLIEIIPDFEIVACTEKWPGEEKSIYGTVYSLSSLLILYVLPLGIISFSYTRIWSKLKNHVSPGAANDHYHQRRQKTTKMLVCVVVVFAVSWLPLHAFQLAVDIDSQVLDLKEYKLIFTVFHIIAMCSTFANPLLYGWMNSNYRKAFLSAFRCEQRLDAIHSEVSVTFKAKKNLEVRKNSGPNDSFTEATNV
# T2: human NPY1 receptor (human, UniProt P25929 1-384)
# T2 sequence (looked up): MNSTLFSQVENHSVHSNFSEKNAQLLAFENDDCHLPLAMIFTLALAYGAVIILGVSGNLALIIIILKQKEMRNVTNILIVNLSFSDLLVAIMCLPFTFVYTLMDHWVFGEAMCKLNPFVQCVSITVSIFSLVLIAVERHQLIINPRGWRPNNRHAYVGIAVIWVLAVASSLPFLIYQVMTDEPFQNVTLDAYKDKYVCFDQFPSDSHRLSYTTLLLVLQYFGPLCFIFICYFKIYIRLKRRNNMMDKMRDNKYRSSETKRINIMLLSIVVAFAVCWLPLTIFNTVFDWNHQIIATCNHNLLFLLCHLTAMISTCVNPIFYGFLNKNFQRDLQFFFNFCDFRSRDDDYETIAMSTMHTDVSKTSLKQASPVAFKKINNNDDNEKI
# T3: human NPY5 receptor (human, UniProt Q15761 1-445)
# T3 sequence (looked up): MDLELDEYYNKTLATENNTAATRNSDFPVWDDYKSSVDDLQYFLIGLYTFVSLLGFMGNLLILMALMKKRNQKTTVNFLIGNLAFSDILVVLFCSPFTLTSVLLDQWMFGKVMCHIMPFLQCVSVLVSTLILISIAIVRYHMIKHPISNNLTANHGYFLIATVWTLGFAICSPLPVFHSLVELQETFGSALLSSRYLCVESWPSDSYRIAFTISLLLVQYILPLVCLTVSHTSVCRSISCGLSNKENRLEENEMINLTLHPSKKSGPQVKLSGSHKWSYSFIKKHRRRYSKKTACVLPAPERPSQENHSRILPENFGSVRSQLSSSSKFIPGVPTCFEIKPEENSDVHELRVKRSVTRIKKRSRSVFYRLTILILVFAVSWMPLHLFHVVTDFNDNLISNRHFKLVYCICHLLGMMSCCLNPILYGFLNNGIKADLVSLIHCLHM
# B1: Compound 54 (peptide)
# peptide: Isovaleryl-APEK([AEEA-AEEA-γGlu-C18 diacid])PEEDASPEELQRYYVSLRHYYNWLTRQRY-NH2
# SMILES: CC(C)CC(=O)N[C@@H](C)C(=O)N1CCC[C@H]1C(=O)N[C@@H](CCC(=O)O)C(=O)N[C@@H](CCCCNC(=O)COCCOCCNC(=O)COCCOCCNC(=O)CC[C@H](NC(=O)CCCCCCCCCCCCCCCCC(=O)O)C(=O)O)C(=O)N1CCC[C@H]1C(=O)N[C@@H](CCC(=O)O)C(=O)N[C@@H](CCC(=O)O)C(=O)N[C@@H](CC(=O)O)C(=O)N[C@@H](C)C(=O)N[C@@H](CO)C(=O)N1CCC[C@H]1C(=O)N[C@@H](CCC(=O)O)C(=O)N[C@@H](CCC(=O)O)C(=O)N[C@@H](CC(C)C)C(=O)N[C@@H](CCC(N)=O)C(=O)N[C@@H](CCCNC(=N)N)C(=O)N[C@@H](Cc1ccc(O)cc1)C(=O)N[C@@H](Cc1ccc(O)cc1)C(=O)N[C@H](C(=O)N[C@@H](CO)C(=O)N[C@@H](CC(C)C)C(=O)N[C@@H](CCCNC(=N)N)C(=O)N[C@@H](Cc1c[nH]cn1)C(=O)N[C@@H](Cc1ccc(O)cc1)C(=O)N[C@@H](Cc1ccc(O)cc1)C(=O)N[C@@H](CC(N)=O)C(=O)N[C@@H](Cc1c[nH]c2ccccc12)C(=O)N[C@@H](CC(C)C)C(=O)N[C@H](C(=O)N[C@@H](CCCNC(=N)N)C(=O)N[C@@H](CCC(N)=O)C(=O)N[C@@H](CCCNC(=N)N)C(=O)N[C@@H](Cc1ccc(O)cc1)C(N)=O)[C@@H](C)O)C(C)C
# B2: Compound 18 (peptide)
# peptide: Isovaleryl-APEK([AEEA-AEEA-γGlu-C18 diacid])PEEDAEPEELQQYYVSLRHYYNWLTRQRY-NH2
# SMILES: CC(C)CC(=O)N[C@@H](C)C(=O)N1CCC[C@H]1C(=O)N[C@@H](CCC(=O)O)C(=O)N[C@@H](CCCCNC(=O)COCCOCCNC(=O)COCCOCCNC(=O)CC[C@H](NC(=O)CCCCCCCCCCCCCCCCC(=O)O)C(=O)O)C(=O)N1CCC[C@H]1C(=O)N[C@@H](CCC(=O)O)C(=O)N[C@@H](CCC(=O)O)C(=O)N[C@@H](CC(=O)O)C(=O)N[C@@H](C)C(=O)N[C@@H](CCC(=O)O)C(=O)N1CCC[C@H]1C(=O)N[C@@H](CCC(=O)O)C(=O)N[C@@H](CCC(=O)O)C(=O)N[C@@H](CC(C)C)C(=O)N[C@@H](CCC(N)=O)C(=O)N[C@@H](CCC(N)=O)C(=O)N[C@@H](Cc1ccc(O)cc1)C(=O)N[C@@H](Cc1ccc(O)cc1)C(=O)N[C@H](C(=O)N[C@@H](CO)C(=O)N[C@@H](CC(C)C)C(=O)N[C@@H](CCCNC(=N)N)C(=O)N[C@@H](Cc1c[nH]cn1)C(=O)N[C@@H](Cc1ccc(O)cc1)C(=O)N[C@@H](Cc1ccc(O)cc1)C(=O)N[C@@H](CC(N)=O)C(=O)N[C@@H](Cc1c[nH]c2ccccc12)C(=O)N[C@@H](CC(C)C)C(=O)N[C@H](C(=O)N[C@@H](CCCNC(=N)N)C(=O)N[C@@H](CCC(N)=O)C(=O)N[C@@H](CCCNC(=N)N)C(=O)N[C@@H](Cc1ccc(O)cc1)C(N)=O)[C@@H](C)O)C(C)C
# B3: Compound 41 (peptide)
# peptide: Isovaleryl-APEK([AEEA-AEEA-γGlu-C18 diacid])PEEEATPEELQRYYVSLRHYYNWLTRQRY-NH2
# SMILES: CC(C)CC(=O)N[C@@H](C)C(=O)N1CCC[C@H]1C(=O)N[C@@H](CCC(=O)O)C(=O)N[C@@H](CCCCNC(=O)COCCOCCNC(=O)COCCOCCNC(=O)CC[C@H](NC(=O)CCCCCCCCCCCCCCCCC(=O)O)C(=O)O)C(=O)N1CCC[C@H]1C(=O)N[C@@H](CCC(=O)O)C(=O)N[C@@H](CCC(=O)O)C(=O)N[C@@H](CCC(=O)O)C(=O)N[C@@H](C)C(=O)N[C@H](C(=O)N1CCC[C@H]1C(=O)N[C@@H](CCC(=O)O)C(=O)N[C@@H](CCC(=O)O)C(=O)N[C@@H](CC(C)C)C(=O)N[C@@H](CCC(N)=O)C(=O)N[C@@H](CCCNC(=N)N)C(=O)N[C@@H](Cc1ccc(O)cc1)C(=O)N[C@@H](Cc1ccc(O)cc1)C(=O)N[C@H](C(=O)N[C@@H](CO)C(=O)N[C@@H](CC(C)C)C(=O)N[C@@H](CCCNC(=N)N)C(=O)N[C@@H](Cc1c[nH]cn1)C(=O)N[C@@H](Cc1ccc(O)cc1)C(=O)N[C@@H](Cc1ccc(O)cc1)C(=O)N[C@@H](CC(N)=O)C(=O)N[C@@H](Cc1c[nH]c2ccccc12)C(=O)N[C@@H](CC(C)C)C(=O)N[C@H](C(=O)N[C@@H](CCCNC(=N)N)C(=O)N[C@@H](CCC(N)=O)C(=O)N[C@@H](CCCNC(=N)N)C(=O)N[C@@H](Cc1ccc(O)cc1)C(N)=O)[C@@H](C)O)C(C)C)[C@@H](C)O
# B4: Compound 11 (peptide)
# peptide: Isovaleryl-APEK([AEEA-AEEA-γGlu-C18 diacid])PEEDASPEEIQQYYVSLRHYYNWLTRQRY-NH2
# SMILES: CC[C@H](C)[C@H](NC(=O)[C@H](CCC(=O)O)NC(=O)[C@H](CCC(=O)O)NC(=O)[C@@H]1CCCN1C(=O)[C@H](CO)NC(=O)[C@H](C)NC(=O)[C@H](CC(=O)O)NC(=O)[C@H](CCC(=O)O)NC(=O)[C@H](CCC(=O)O)NC(=O)[C@@H]1CCCN1C(=O)[C@H](CCCCNC(=O)COCCOCCNC(=O)COCCOCCNC(=O)CC[C@H](NC(=O)CCCCCCCCCCCCCCCCC(=O)O)C(=O)O)NC(=O)[C@H](CCC(=O)O)NC(=O)[C@@H]1CCCN1C(=O)[C@H](C)NC(=O)CC(C)C)C(=O)N[C@@H](CCC(N)=O)C(=O)N[C@@H](CCC(N)=O)C(=O)N[C@@H](Cc1ccc(O)cc1)C(=O)N[C@@H](Cc1ccc(O)cc1)C(=O)N[C@H](C(=O)N[C@@H](CO)C(=O)N[C@@H](CC(C)C)C(=O)N[C@@H](CCCNC(=N)N)C(=O)N[C@@H](Cc1c[nH]cn1)C(=O)N[C@@H](Cc1ccc(O)cc1)C(=O)N[C@@H](Cc1ccc(O)cc1)C(=O)N[C@@H](CC(N)=O)C(=O)N[C@@H](Cc1c[nH]c2ccccc12)C(=O)N[C@@H](CC(C)C)C(=O)N[C@H](C(=O)N[C@@H](CCCNC(=N)N)C(=O)N[C@@H](CCC(N)=O)C(=O)N[C@@H](CCCNC(=N)N)C(=O)N[C@@H](Cc1ccc(O)cc1)C(N)=O)[C@@H](C)O)C(C)C
# Legend:
# [1] = biological target: T1, human neuropeptide Y2 receptor; test: radioligand competition (125I-PYY(1-36)), hNPY2R membranes
# Summary of the method: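 Commercial human Y2 receptor membranes (0.5 μg protein/well) were incubated with peptide for 2 h at room temperature in 50 mM HEPES, 5 mM MgCl₂, 1 mM CaCl₂, pH 7.4, with 0.2% ovalbumin. Bound radioligand was separated on PEI-soaked GF/C filters and counted by scintillation, and IC₅₀ came from nonlinear sigmoidal regression.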
# human NPY1 receptor = biological target: T2, human NPY1 receptor; test: cell-based or functional assay
# human NPY4 receptor = human NPY4 receptor (human, UniProt P50391 1-375); test: cell-based or functional assay
# human NPY4 receptor, sequence (P50391 whole entry): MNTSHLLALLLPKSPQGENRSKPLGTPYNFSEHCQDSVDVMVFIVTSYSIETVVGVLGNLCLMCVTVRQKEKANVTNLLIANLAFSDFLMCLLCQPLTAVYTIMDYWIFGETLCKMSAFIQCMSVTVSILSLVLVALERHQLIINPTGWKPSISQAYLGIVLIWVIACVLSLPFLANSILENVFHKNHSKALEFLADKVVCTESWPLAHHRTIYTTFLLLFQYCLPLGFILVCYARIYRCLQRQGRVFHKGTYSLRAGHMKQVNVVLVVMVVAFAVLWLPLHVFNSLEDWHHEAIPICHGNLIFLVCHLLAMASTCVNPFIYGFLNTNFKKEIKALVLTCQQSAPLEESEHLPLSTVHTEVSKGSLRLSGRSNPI
# human NPY5 receptor = biological target: T3, human NPY5 receptor; test: cell-based or functional assay
# [2] = biological target: T1, human neuropeptide Y2 receptor; test: cell-based or functional assay
Binder,Ki [1] [nM],EC50 (HTRF cAMP Gi assay) (human NPY1 receptor) [nM],EC50 (HTRF cAMP Gi assay) (human NPY4 receptor) [nM],EC50 (HTRF cAMP Gi assay) (human NPY5 receptor) [nM],EC50 (HTRF cAMP Gi assay) [2] [nM]
B1,0.95,> 5000,> 5000,> 5000,0.131
B2,3.71,> 5000,> 5000,> 5000,0.167
Isovaleryl-APEK([AEEA-AEEA-γGlu-C18 diacid])PEEDATPEEIQRYYVSLRHYYNWLTRQRY-NH2 [Compound 171],,> 5000,> 5000,> 5000,
B3,3.22,> 5000,> 5000,> 5000,0.159
B4,0.74,> 5000,> 5000,> 5000,0.334
